Results taken from the supplement of paper PMC10567573.
± gives the standard deviation.

Experiment: protein stability index of a GFP-peptide fusion (GPS, HEK-293T) (PSI 1-6); higher = more stable
[1] = treatment: DMSO, c terminus: a fixed tail appended
[2] = treatment: MLN4924 1 uM, 8 h, c terminus: a fixed tail appended
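Also: 24-mer peptide tiles fused after GFP, lentivirally expressed, FACS-sorted into six equal bins by GFP/DsRed ratio, decoded by Illumina sequencing, PSI is the read-weighted mean bin number.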

QHQNKSPPKVKAEDGMQCLQLKET [DLC1]
protein stability index [1]: 5.17 ± 0.47
protein stability index [2]: 5.2 ± 0.11

RAHPPQRPASSGGAHTLVNHGYAE [KCNA3]
protein stability index [1]: 4.12 ± 0.13
protein stability index [2]: 3.94 ± 0.3

PQAPDPEEEENRDSQQPGKRRKDS [FANCE]
protein stability index [1]: 5.74 ± 0.21
protein stability index [2]: 5.62 ± 0.3

IDEVLLHQDVDLVCINLPPPLTRQ [GFOD1]
protein stability index [1]: 2.83 ± 0.38
protein stability index [2]: 2.98 ± 0.43

VFLIIYYLDPSVLSGVSCFVMFLC [ARL6IP1]
protein stability index [1]: 2.64 ± 0.29
protein stability index [2]: 2.91 ± 0.91

HSIALSTFASLIGPFGGFFASGFK [CDS1]
protein stability index [1]: 2.57 ± 0.61
protein stability index [2]: 2.64 ± 0.69

VLELLGPSLEDLFDLCDRTFSLKT [CSNK1G3]
protein stability index [1]: 2.38 ± 0.57
protein stability index [2]: 2.36 ± 0.48

ERLNKEYQEIFQQLQRSWVKMDQK [TRIM43]
protein stability index [1]: 3.23 ± 0.3
protein stability index [2]: 3.39 ± 0.55

PVPGKTLHLPIMGVVMKVRIPTCH [DENND6A]
protein stability index [1]: 2.43 ± 0.72
protein stability index [2]: 2.45 ± 0.38

TMQLFSKQNPSRQEVTKLQQQVKT [FBXO28]
protein stability index [1]: 3.74 ± 0.2
protein stability index [2]: 3.75 ± 0.28

VETARSHQRSSSESYTQSFQSRKP [PI4K2A]
protein stability index [1]: 5 ± 0.33
protein stability index [2]: 5.04 ± 0.29

PDYGVPSSAASLIDFLRVVRNQQS [PTPN9]
protein stability index [1]: 2.84 ± 0.24
protein stability index [2]: 3.14 ± 0.25

VNVDNLLAAAVVQEHSNSVGGQDT [C18orf25]
protein stability index [1]: 5.05 ± 0.21
protein stability index [2]: 4.92 ± 0.43

KLLQGEEERLKLSPSPSSRVTVSR [LMNB1]
protein stability index [1]: 4.13 ± 0.23
protein stability index [2]: 4.13 ± 0.3

ERCSDSDEEKKARRGRSPKGEFKD [CLINT1]
protein stability index [1]: 5.43 ± 0.27
protein stability index [2]: 5.3 ± 0.51

VAHVKHLSASQKALKEKEKASWSS [COX4I1]
protein stability index [1]: 3.57 ± 0.4
protein stability index [2]: 3.83 ± 0.34

WIVDKQHVYIGSAGLDWQSLGQMK [PLD5]
protein stability index [1]: 2.44 ± 0.42
protein stability index [2]: 2.16 ± 0.24

RTIAETEAAYLKILESSQTLLSVL [SSNA1]
protein stability index [1]: 2.33 ± 0.29
protein stability index [2]: 2.72 ± 0.27

LGPRDAGTRGRLESAQATFQAHRD [ARFIP2]
protein stability index [1]: 4.62 ± 0.35
protein stability index [2]: 4.67 ± 0.27

VYHPSPEESRDPTLYANNVQRVMA [LPCAT4]
protein stability index [1]: 3.6 ± 0.13
protein stability index [2]: 3.81 ± 0.12

NVHTGEFRNCGACVTLMQGHEGSV [WDR88]
protein stability index [1]: 2.35 ± 0.5
protein stability index [2]: 2.17 ± 0.2

GIFQAMCLLICAEMYQVSRLQHIC [RHOBTB3]
protein stability index [1]: 2.99 ± 0.59
protein stability index [2]: 3.09 ± 0.34

RNALENIRKEMKLLEQAGSLKGSL [CRYL1]
protein stability index [1]: 3.32 ± 0.64
protein stability index [2]: 3.62 ± 0.32

HMSLEKDIAAMTNSLFIDRQKCMA [TEKT4]
protein stability index [1]: 3 ± 0.18
protein stability index [2]: 3.02 ± 0.23

WSRNSKPVHTTILNPHIHLMGDES [CAMK2A]
protein stability index [1]: 3.4 ± 0.28
protein stability index [2]: 3.53 ± 0.08

KACNKAVAGEFSEPVTLETPAFMF [FSD1]
protein stability index [1]: 2.84 ± 0.18
protein stability index [2]: 2.98 ± 0.33

LHVNGESLEMDSDEDDSEELEEDD [EHMT1]
protein stability index [1]: 5.41 ± 0.26
protein stability index [2]: 5.28 ± 0.12

LKEGMLMKIKQDRASRTYELQNQL [FSD1]
protein stability index [1]: 3.05 ± 0.35
protein stability index [2]: 3.39 ± 0.19

FQGQKTELNNCISMLVAGNDRVQT [TRIM63]
protein stability index [1]: 3.13 ± 0.15
protein stability index [2]: 3.41 ± 0.42

LRYVNSTRAPQRAHEVLQELRDIS [FBXO28]
protein stability index [1]: 3.09 ± 0.21
protein stability index [2]: 3.35 ± 0.28

ENHPQESKGQPRSQEESEEGEEDA [CHGB]
protein stability index [1]: 5.79 ± 0.094
protein stability index [2]: 5.64 ± 0.22

GGMQALGLHLTDPSQRLVQNCLWT [CTNNB1]
protein stability index [1]: 2.11 ± 0.13
protein stability index [2]: 2.1 ± 0.44

IVWNKKGKKVSNQRFEVIEFDDGS [PTPRD]
protein stability index [1]: 3.31 ± 0.18
protein stability index [2]: 3.15 ± 0.062

VTQNSTAEPSRFSSSDSDFDDEEP [FCHO1]
protein stability index [1]: 5.52 ± 0.25
protein stability index [2]: 5.55 ± 0.14

PHVALAVRYNRVGILRRILRTLRD [ANKRD9]
protein stability index [1]: 2.73 ± 0.073
protein stability index [2]: 2.84 ± 0.3

LLVQFVCQEYLARNARIVHLVEET [CPXM2]
protein stability index [1]: 3.82 ± 0.26
protein stability index [2]: 2.63 ± 0.95

AQEPSAVPRAGPLTVNTEAQQLLR [FOXJ1]
protein stability index [1]: 4.62 ± 0.39
protein stability index [2]: 4.9 ± 0.17

PCVIESLRTLDKKTFYKTADISQM [TAF7L]
protein stability index [1]: 2.33 ± 0.34
protein stability index [2]: 2.41 ± 0.23

PKGSLSMGPAPRARPWTRDSASLP [RASAL3]
protein stability index [1]: 3.81 ± 0.13
protein stability index [2]: 4.04 ± 0.4

TAAGLMHTFNAHAATDITGFGILG [SEPHS2]
protein stability index [1]: 2.43 ± 0.51
protein stability index [2]: 2.44 ± 0.074

TPMRVALAGTFHYYSCERAKKAMG [NSDHL]
protein stability index [1]: 2.48 ± 0.5
protein stability index [2]: 2.38 ± 0.16

TLRPTDSQSHCYRTCFSPASDGSD [PCDHGC5]
protein stability index [1]: 3.93 ± 0.25
protein stability index [2]: 4.04 ± 0.28

PPLPGDMSTGPIAESWCYTQVKVV [SPOPL]
protein stability index [1]: 2.27 ± 0.15
protein stability index [2]: 2.38 ± 0.33

VIHRALDREQVSSYNITVTATDGG [PCDHGA10]
protein stability index [1]: 3.27 ± 0.23
protein stability index [2]: 3.14 ± 0.28

VSRMRTQRAFSIQTPEQYYFCYKA [PTPN9]
protein stability index [1]: 2.56 ± 0.18
protein stability index [2]: 2.43 ± 0.27

PFKQVAEMLSASRYPTISMVKPLL [ZBED1]
protein stability index [1]: 1.97 ± 0.4
protein stability index [2]: 2.19 ± 0.38

HQRSSSESYTQSFQSRKPFFSWW [PI4K2A]
protein stability index (treatment: DMSO, c terminus: native): 3.41 ± 0.27
protein stability index (treatment: MLN4924 1 uM, 8 h, c terminus: native): 3.7 ± 0.3

LRRWLRANLAASGGYAIAVVLLQG [TSPAN10]
protein stability index [1]: 2.43 ± 0.68
protein stability index [2]: 2.35 ± 0.075

LKSELGRKWHKASNYIFVAIFWIV [P2RY14]
protein stability index [1]: 2.24 ± 0.61
protein stability index [2]: 2.31 ± 0.19

YIATQGSLPETFGDFWRMIWEQRS [PTPRD]
protein stability index [1]: 2.21 ± 0.21
protein stability index [2]: 2.5 ± 0.55

REQILRVKDTDDVPMILVGNKCDL [RAP1B]
protein stability index [1]: 3.95 ± 0.28
protein stability index [2]: 3.98 ± 0.14

PCSVIRPILKRLERPQDRDTPVQN [CDC25B]
protein stability index [1]: 4.31 ± 0.15
protein stability index [2]: 4.51 ± 0.066

MMRTQCLLGLRTFVAFAAKLWSFF [CTDNEP1]
protein stability index [1]: 4.22 ± 0.2
protein stability index [2]: 4.02 ± 0.29

QQVKCIITEEKVCMVCKKKIGNSA [VPS39]
protein stability index [1]: 3.24 ± 0.4
protein stability index [2]: 3.6 ± 0.66

GACYGDDACFVARHRSADVLGVAD [PPTC7]
protein stability index [1]: 4.18 ± 0.34
protein stability index [2]: 4.817 ± 0.045

PPQSPQGASSLPTTMNYPLWSQSY [MAGEA3]
protein stability index [1]: 3.45 ± 0.21
protein stability index [2]: 3.47 ± 0.22

YLDPSVLSGVSCFVMFLCLADYLV [ARL6IP1]
protein stability index [1]: 2.98 ± 0.21
protein stability index [2]: 2.97 ± 0.39

SSTKPPKSRRKAALSSPRSRKNAT [INTS3]
protein stability index [1]: 4.89 ± 0.19
protein stability index [2]: 5.04 ± 0.14

LLQTQHALGDAFADLSQKSPELQE [ARFIP2]
protein stability index [1]: 4.7 ± 0.22
protein stability index [2]: 4.77 ± 0.21

PGTGKTSLCKALAQKLTIRLSSRY [TRIP13]
protein stability index [1]: 2.92 ± 0.64
protein stability index [2]: 2.63 ± 0.65

DMFDADGGGDISVKELGTVMRMLG [TNNC2]
protein stability index [2]: 2.58 ± 0.16

TKLSLLAIHGYTVWAHNLIAIARL [FBXO33]
protein stability index [1]: 3.19 ± 0.36
protein stability index [2]: 3.22 ± 0.23

AELQAELLHSQARLAELEAQVRKL [FBF1]
protein stability index [1]: 4.29 ± 0.21
protein stability index [2]: 4.26 ± 0.092

LKAIIFFDPDAKGLSDPGKIKRLR [HNF4A]
protein stability index [1]: 2.45 ± 0.33
protein stability index [2]: 2.37 ± 0.12

ISIVIFCLETLPEFRDDRDLVMAL [KCNA4]
protein stability index [1]: 3.04 ± 0.81
protein stability index [2]: 2.84 ± 0.68

SEGSSSSSSSSSSSSSSASSSASS [NFE2L1]
protein stability index [1]: 5.57 ± 0.16
protein stability index [2]: 5.53 ± 0.2

AGEDNDELIDNLKEAQYIRTELVE [PCMTD2]
protein stability index [1]: 5.13 ± 0.18
protein stability index [2]: 5.02 ± 0.17

LEGYISNLRKQLETLSGDRVRLDS [KRT71]
protein stability index [1]: 3.17 ± 0.4
protein stability index [2]: 3.26 ± 0.35

GSGADRIYDLNIPAFVKFAYVAER [NCK2]
protein stability index [1]: 2.35 ± 0.29
protein stability index [2]: 2.36 ± 0.13

LLPMLDALRFTADVRSVLSRNLHQ [CTDNEP1]
protein stability index [1]: 2.5 ± 0.37
protein stability index [2]: 2.1 ± 0.21

HARARDQGQPAMEGHCVIQVDVGD [PCDHGC5]
protein stability index [1]: 4.61 ± 0.068
protein stability index [2]: 4.58 ± 0.23

SCLLPSSEAKLYGRCELARVLHDF [SPACA3]
protein stability index [1]: 2.08 ± 0.57
protein stability index [2]: 2.1 ± 0.26

LQLAIPRENAQISLDGDVTFFGAL [TNFSF13B]
protein stability index [1]: 2.1 ± 0.32
protein stability index [2]: 2.17 ± 0.36

ALSPAGVCGGAQRPGHLPGLLLGS [CDC25B]
protein stability index [1]: 2.51 ± 0.22
protein stability index [2]: 2.93 ± 0.46

WEEAAPGRAVEHAMFLGDAAAHWY [MYORG]
protein stability index [1]: 3.05 ± 0.47
protein stability index [2]: 3.15 ± 0.22

AQKQRLERALDATEVPFSITTDNL [TEKT4]
protein stability index [1]: 4.72 ± 0.29
protein stability index [2]: 4.77 ± 0.22

HVAPLLAAAGLHASPMSADRVVAF [NR2F2]
protein stability index [1]: 2.27 ± 0.43
protein stability index [2]: 2.24 ± 0.27

EELCAQSARCVVSFNILVEDRVKL [PCDHGA10]
protein stability index [1]: 2.57 ± 0.19
protein stability index [2]: 2.21 ± 0.4

RQKKLMHKLQEEKAFREEMKIFRE [CCDC70]
protein stability index [1]: 3.37 ± 0.28
protein stability index [2]: 3.59 ± 0.35

KGEYEVAEGIGSTVFRAILDYYKT [BTBD10]
protein stability index [1]: 2.43 ± 0.4
protein stability index [2]: 2.35 ± 0.41

RLPRAIGMSLAKELIFSARVLDGK [AUH]
protein stability index [1]: 1.83 ± 0.39
protein stability index [2]: 1.9 ± 0.2

KNLYTNEYVAIKLEPMKSRAPQLH [CSNK1G3]
protein stability index [1]: 2.55 ± 0.28
protein stability index [2]: 2.5 ± 0.13

DLCLLYPPFMIALACLHVACVVQQ [CCNC]
protein stability index [1]: 3.11 ± 0.28
protein stability index [2]: 3.12 ± 0.24

LLTNNSGTPKDHDSPENGADSFES [ETS2]
protein stability index [1]: 5.2 ± 0.26
protein stability index [2]: 5.22 ± 0.12

VVDKETDNMYRLAHFSPFLYYQSQ [PDZK1]
protein stability index [1]: 2.62 ± 0.35

VRLLLEFKAEVDPLSDKGTTPLQL [ASB7]
protein stability index [1]: 2.16 ± 0.48
protein stability index [2]: 2.31 ± 0.4

MVAHDETGGLLPIKRTIRVLDVNN [NET1]
protein stability index [1]: 3.27 ± 0.21
protein stability index [2]: 3.35 ± 0.25

KMFLRTREPALDGGFQMHYEKTPF [EID1]
protein stability index [1]: 2.83 ± 0.25
protein stability index [2]: 3.05 ± 0.4

GRLYVHPDSPATGAHWMRQLVSFQ [TBX5]
protein stability index [1]: 2.32 ± 0.26
protein stability index [2]: 2.34 ± 0.2
